Test results taken from patent publication US20090253630A1 (Eli Lilly, published 2009).
Groups on a side chain read outwards from the residue. No end group written: not given here. CO‑CH2 = CO-CH2 linker joining mPEG to the Lys side chain

T1: PTH receptor (PTHR1) on SaOS-2 osteosarcoma cells (UniProt Q03431 27-593, limits assumed)
T1 sequence (looked up): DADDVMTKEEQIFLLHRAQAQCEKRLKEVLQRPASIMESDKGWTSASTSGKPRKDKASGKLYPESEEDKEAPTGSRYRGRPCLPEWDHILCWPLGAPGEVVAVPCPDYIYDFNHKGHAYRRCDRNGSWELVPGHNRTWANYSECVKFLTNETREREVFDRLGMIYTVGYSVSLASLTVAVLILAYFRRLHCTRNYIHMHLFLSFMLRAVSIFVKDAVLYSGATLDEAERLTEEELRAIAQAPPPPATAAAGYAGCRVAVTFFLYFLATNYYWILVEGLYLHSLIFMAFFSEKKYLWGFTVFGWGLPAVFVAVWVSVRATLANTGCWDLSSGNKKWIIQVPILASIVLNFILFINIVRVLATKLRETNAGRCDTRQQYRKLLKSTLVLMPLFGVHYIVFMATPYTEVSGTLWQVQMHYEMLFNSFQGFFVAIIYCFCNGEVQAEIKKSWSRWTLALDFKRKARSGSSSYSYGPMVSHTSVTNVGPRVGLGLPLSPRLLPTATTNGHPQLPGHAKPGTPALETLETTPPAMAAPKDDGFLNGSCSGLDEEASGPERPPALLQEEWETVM


Tests used:
[1] = biological target: PTHR-emGFP expressed in transfected HEK 293 cells; assay: cell-based or functional assay
[2] = biological target: T1, PTH receptor (PTHR1) on SaOS-2 …; assay: cell-based or functional assay

| PTHR1 internalization at 20 min, 100 nM compound, percent of vehicle only control (baseline=100%) [1] | PTHR1 internalization at 40 min, 100 nM compound, percent of vehicle only control (baseline=100%) [1] | PTHR1 internalization at 60 min, 100 nM compound, percent of vehicle only control (baseline=100%) [1] | PTHR1 internalization at 180 min, 100 nM compound, percent of vehicle only control (baseline=100%) [1] | Average EC50 (nM) (n = 2), cAMP induction in SaOS-2 cells (HTRF) [2] | Binder |
| --- | --- | --- | --- | --- | --- |
| 106 % of vehicle only control | 126 % of vehicle only control | 113 % of vehicle only control | 142 % of vehicle only control |  | SVSEIQLMHNLGRHLASMERVEWLRKLLQDVHNF (not fully specified (C-terminus)) [SEQ ID NO: 1 but unpegylated and Lysine at amino acid 26] |
| 127 % of vehicle only control | 93 % of vehicle only control | 91 % of vehicle only control | 92 % of vehicle only control |  | SVSEIQLMHNLGRHLASMERVEWLRK([CO‑CH2-mPEG 5 kD])LLQDVHNF-NH2 (also: trifluoroacetate salt) [SEQ ID NO: 1 with 5 kD mPEG] |
| 160 % of vehicle only control | 120 % of vehicle only control | 104 % of vehicle only control | 102 % of vehicle only control | 7.7 | SVSEIQLMHNLGRHLASMERVEWLRK([CO‑CH2-mPEG 2 kD])LLQDVHNF-NH2 (also: trifluoroacetate salt) [SEQ ID NO: 1 with 2 kD mPEG] |
